Here are results for five molecules from article PMC4772114, “Structural basis for the regulation of enzymatic activity of Regnase-1 by domain-domain interactions” (Scientific Reports, 2016).

Where a chain is given by its changes, count along the chain named.

Data set [1] concerns the molecule itself. Nature of the data set: not stated; Kd of PIN-PIN told in the discussion only; how it was estimated is not told.
Data set [2] deals with the molecule itself. The data set is described as follows: SEC; gel filtration of the PIN domain and its mutants; elution volume compared with standard marker proteins; concentration dependent, 20-200 uM range.
For data set [3], the target named is T1, Regnase-1 ZF domain (Mus musculus, UniProt Q5D1E7 299-339).
T1 chain: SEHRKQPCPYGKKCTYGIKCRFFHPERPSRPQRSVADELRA
Nature of the data set: NMR titration (1H-15N HSQC, Y314); Zn2+-bound ZF; 100 uM ZF; apparent Kd; EMSA: 20 mM HEPES-NaOH pH 6.8, 150 mM NaCl, 1 mM DTT, 10% glycerol, 0.1% NP-40, 4 C, 30 min; NMR buffer not in material. The conditions noted are these: protein: recombinant; tags: GST removed (HRV-3C), 15N-labeled. Background: Mobility shift assays separate free from complexed probe on a gel.

Data set [4] addresses T2, Regnase-1 PIN domain, catalytically inactive monomeric mutant (DDNN and D278R) (Mus musculus, UniProt Q5D1E7 134-295, D226N | D244N | D278R).
T2 construct: Regnase-1 (Zc3h12a), Mus musculus, PIN domain; the discussion gives PIN as residues 134-295; Limits as for m1; Uniformly 15N-labelled or unlabelled in the NMR experiments; not shown: GST, N-terminal, cleaved
T2 sequence (looked up): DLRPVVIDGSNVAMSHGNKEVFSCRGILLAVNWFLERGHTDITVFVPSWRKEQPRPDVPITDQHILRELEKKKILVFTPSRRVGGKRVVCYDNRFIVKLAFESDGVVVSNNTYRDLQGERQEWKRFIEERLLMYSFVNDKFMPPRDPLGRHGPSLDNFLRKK
Nature of the data set: NMR titration; 1H-15N HSQC of 15N-labeled NTD at 100 uM with unlabeled PIN (DDNN, D278R) added (3 or 6 molar equivalents); 298 K; apparent Kd from the titration curve of L58. Particulars: both partners purified.

Data set [5] deals with the molecule itself. Nature of the data set: crystal structure; PIN-ZF (134-339), sitting drop vapor diffusion at 20 C; form I (P3_121, selenomethionine-labeled) and form II (P3_221, native).

B1: Regnase-1 PIN domain, wild type (domain or fragment, Mus musculus, UniProt Q5D1E7 134-295, looked up)
chain: T2 sequence (looked up) with N93D, N111D, R145D
notes: Regnase-1 (Zc3h12a, MCPIP1), Mus musculus, PIN domain; the discussion gives PIN as residues 134-295; The limits 134-295 are told for the PIN domain in the discussion, not expressly for the construct; 15N-labelled for NMR; also called PilT N-terminus like domain; not shown: GST, N-terminal, cleaved
Turning to B1, the Kd in data set [1] is about 100 µM.

B2: Regnase-1 PIN domain R215E (domain or fragment, Mus musculus, UniProt Q5D1E7 134-295, looked up)
chain: T2 sequence (looked up) with R82E, N93D, N111D, R145D
notes: Regnase-1 (Zc3h12a), Mus musculus, PIN domain; the discussion gives PIN as residues 134-295; Limits as for m1; not shown: GST, N-terminal, cleaved
Turning to B2, the binding result in data set [2] is reported as “binds”.

For UGUUGUUCUCUACGAAGAACUGACA (ssRNA) [IL-6 mRNA 3'UTR (82-106)], in data set [3], the Kd amounted to 10 ± 1.1 µM.

B3: Regnase-1 N-terminal domain (NTD) (domain or fragment, Mus musculus)
chain: TSELQMKVDFFRKLGYSSSEIHSVLQKLGVQADTNTVLGELVKHG
notes: Regnase-1 (Zc3h12a), Mus musculus, N-terminal domain; residues 90-133 are called the connection between the NTD and PIN; Uniformly 15N-labelled or unlabelled in the NMR experiments; not shown: GST, N-terminal, cleaved
On to B3, for which the Kd in data set [4] came to 110 ± 5.8 µM.

B4: Regnase-1 PIN-ZF (residues 134-339) (domain or fragment, Mus musculus, UniProt Q5D1E7 134-339, looked up)
chain: DLRPVVIDGSNVAMSHGNKEVFSCRGILLAVNWFLERGHTDITVFVPSWRKEQPRPDVPITDQHILRELEKKKILVFTPSRRVGGKRVVCYDDRFIVKLAFESDGVVVSNDTYRDLQGERQEWKRFIEERLLMYSFVNDKFMPPDDPLGRHGPSLDNFLRKKPLPSEHRKQPCPYGKKCTYGIKCRFFHPERPSRPQRSVADELRA
modifications: selenomethionine-labeled (form I crystals); native (form II crystals)
notes: Regnase-1 (Zc3h12a), Mus musculus, PIN and ZF domains, residues 134-339; Electron density was observed only for the PIN domain; also called fragment containing both the PIN and ZF domains; not shown: GST, N-terminal, cleaved
On to B4, for which, in data set [5], the binding result is “binds”.
